The values that follow come from paper PMC6221140.

Test in all cases: two-hybrid; BACTH in E. coli BTH101 (cya); full length proteins fused to the C-terminus of T18 (pUT18C) or T25 (pKT25) of CyaA; blue colonies on X-Gal/IPTG plates, 30°C, 24 h, and β-galactosidase activity of liquid cultures in Miller units; biological duplicate
Experiment [1] deals with SpoIIIAH (Clostridium difficile).
Experiment [2] concerns the target SpoIIQ (Clostridium difficile).
Experiment [3] has as its target SpoIIM (Clostridium difficile).
The target of experiment [4] is SpoIIP H142R (Clostridium difficile).

As for SpoIIQ (natural protein), the β-galactosidase activity in experiment [1] is 701 Miller Units; in experiment [2] it was 743 MU.

B1: SpoIID (natural protein)
chain: MKNPLVVLLGFVTCSVLVPSLITLVSYKNVELTEKPESPVSINKTIKKSDIEDKGNKEEKNTVNYETVNKKAPIINVYNHITGKTEKMDMENYLCGVLAGEMSSEFDIEALKAQSVAARTYVVYKQEHGKSSKHKNAVVCTDYKHCQEYKSYDTLKKLNGEEWIKNKYSKIQEAVRGTKGQIITYNDKAILPLYFSTSSGKTENSEEVFSAKYPYLKSVESPYDKYSPKFASTLKISNTDFVKSLRRAYSTIVIDVNNLSKQVSITKRSDAGTVEKIKLGNKELTGKDIRTVFKLNSANFDIKFGEGYIDFVVKGYGHGVGMSQWGAEGMAEEGYKYYDILSHYYTDTKIKDIY
For the molecule B1, the β-galactosidase activity in experiment [1] amounted to 656 MU; in experiment [3], 699 MU; in experiment [4], 229 MU; in experiment [2], 761 MU.
